# T1: SUVR5 zinc finger domain (aa 720-866) (Arabidopsis thaliana, UniProt O64827 SEQ:1-147)
# T1 sequence: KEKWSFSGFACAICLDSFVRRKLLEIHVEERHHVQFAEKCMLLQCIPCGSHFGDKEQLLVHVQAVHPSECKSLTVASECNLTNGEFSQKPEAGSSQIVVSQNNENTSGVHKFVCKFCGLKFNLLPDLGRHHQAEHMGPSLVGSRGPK
# B1: specific probe (dsDNA)
# DNA 1: GTAGAATACTAGTTGATAAC
# DNA 2: GTTATCAACTAGTATTCTAC
# B2: unspecific probe (dsDNA)
# DNA 1: ACCAAGCAACACACCCCGT
# DNA 2: ACGGGGTGTGTTGCTTGGT
# What was measured:
# [1] = target: T1, SUVR5 zinc finger domain (aa 720-866); test: EMSA; 100, 250, 500 ng protein; 12% glycerol, 20 mM Tris-HCl pH 7.5, 50 mM KCl, 1 mM MgCl2, 1 mM DTT; settings: tags: GST fusion (pDEST15)
# [2] = target: T1, SUVR5 zinc finger domain (aa 720-866); test: EMSA; specificity control; specificity stated as confirmed by EMSA, gel only in figure; settings: tags: GST fusion (pDEST15)
Binder,binding result [1],binding result [2]
B1,binds,
B2,,no binding
